# Laboratory results from the nanobody polyreactivity screen of Harvey et al. (2022).
# Assay: yeast display, Sf9 membrane polyspecificity reagent, FACS + sequencing; frameworks hold sequencing errors
# Method in brief: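 Genes from sorted yeast were amplified by colony PCR, read by MiSeq 2 × 250 sequencing and filtered on CDR length. These cells carried a synthetic nanobody library in Saccharomyces cerevisiae BJ5465 and were sorted by FACS into low and high (top ~1%) gates on anti-HA and streptavidin fluorescence. Polyreactivity is labelled according to the gate of origin.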
row,Sequence,polyreactivity (PSR sort gate)
1,QVQLVESGGGLVQAGGSLRLSCAASGRIFLRNDMGWYRQAPGKERELVAGISSDGSTYYADSVKGRFTISRDNAKNTVYLQMNSLKPEDTAVYYCAAERWGNPTDYQFWRPYDYWGQGTQVTVSS,low polyreactivity
2,QVQLVESGGGLVQAGGSLRLSCAASGRIFLRYALGWYRQAPGKEREWVAVITWSGGSTNYADSVKGRFTISRDNAKNTVYLQMNSLKPEDTAVYYCAVDNTGRSWPYDYWGQGTQVTVSS,low polyreactivity
3,QVQLVESGGGLVQAGGSLRLSCAASGRIFLSNAMGRYRQAPRKDRELVAAISWTGGSTYYADSVKGRFTISRDNAKNTVYLQMNSLKPEDTAVYYCAASTVGQTYSYYVDTYDYWGQGTQVTVSS,low polyreactivity
4,QVQLVESGGGLVQAGGSLRLSCAASGRIFLSNGMGWYRQAPGKERELVAGITTGGGDSTYYADSVKGRFTISRDNAKNTVYLQMNSLKPEDTAVYYCNADSVYAGFDYWGQGTQVTVSS,low polyreactivity
5,QVQLVESGGGLVQAGGSLRLSCAASGRIFLSYAMGWYRQAPGKERELVAAIRSTGTRTYYADSVKGRFTISRDNAKNTVYLQMNSLKPEDTAVYYCAVGDYGLWSYDYWGQGTQVTVSS,low polyreactivity
6,QVQLVESGGGLVQAGGSLRLSCAASGRIFLSYTMGWYRQAPGKERELVAAISRGGRTYYADSVKGRFTISRDNAKNTVYLQMNSLKPEDTAVYYCAKKYGRYGSLRGRTIDDYWGQGTQVTVSS,low polyreactivity
7,QVQLVESGGGLVQAGGSLRLSCAASGRIFLVNAMGWDRQAPGKERELVAAINFISGSTYYADSVKGRFTISRDNAKNTVYLQMNSLKPEDTAVYYCAAYSYWSYVQRYNLEYDYWGQGTQVTVSS,low polyreactivity
8,QVQLVESGGGLVQAGGSLRLSCAASGRIFLVYAMGWYIQAPGKERDLVASISSRGSSTNYADSVKGRFTISRDNANNTDYLQMNSLKPEDTAVYYCAAGVYRPRYQSTAYDYWGQGTQVTVSS,high polyreactivity
9,QVQLVESGGGLVQAGGSLRLSCAASGRIFLVYAMGWYRQAPGKERELVAAISWRGGRTYYADSVKGRFTISRDNAKNTVYLQMNILKPEDTAVYYCAAASKYSQFEYDYWGHGTQVTVSS,high polyreactivity
10,QVQLVESGGGLVQAGGSLRLSCAASGRIFLVYAMGWYRQAPGKERELVAAISWRGGRTYYADSVKGRFTISRDNAKNTVYLQMNSLKPEDTAVYYCAAASKYSQFEYDYWGQGTQVTVSS,high polyreactivity
11,QVQLVESGGGLVQAGGSLRLSCAASGRIFLVYVMGWYRQAPAKERELVAANSWSGGSTYYADSVKGRFTISRDNAKNTVYLQMNSLKPEDTAVYYFAAYYRGRNFDYWGQATQVTVSS,high polyreactivity
12,QVQLVESGGGLVQAGGSLRLSCAASGRIFLWNAMGWYRPAPGKERELVAGISWRGSSTYYADSVKGRFTISRDNAKNTVYLQMNSLKPEDTAVYYCAARTRGGRGYGMYYWGQGTQVTVSS,high polyreactivity
13,QVQLVESGGGLVQAGGSLRLSCAASGRIFLWYAMGWYRQAPGKERELVAAISWDTGNTYYADSVKGRFTISRDNAKNTVYLQINSLKPEDTAVYYCNADNYEWGNNYGYWGQGTQVTVSS,low polyreactivity
14,QVQLVESGGGLVQAGGSLRLSCAASGRIFLWYAMGWYRQAPGKERELVAAIWRGGSTYYADSVKGRFTISRDNAKNTVYLLMNSLKPEDTAVYYCAAEDVYFGYDYWGQGTQVTVSS,low polyreactivity
15,QVQLVESGGGLVQAGGSLRLSCAASGRIFLWYAMGWYRQAPGKERELVAVITGGGSTNYADSVKGRFTISRDNAKNTVYLQMNSLKPEDTAVYYCATEGYGHGGETDGGVYSDLGYWGQGTQVTVSS,low polyreactivity
16,QVQLVESGGGLVQAGGSLRLSCAASGRIFLYYAMGWYRQAPGKERELVAAIDSSGGNTNYADSVKGRFTISRDNAKNTVYLQMNSLKPEDTAVYYCAADFYVSADRWPNYDYWGHGTQVTVSS,low polyreactivity
17,QVQLVESGGGLVQAGGSLRLSCAASGRIFLYYAMGWYRQAPGKERELVAAITSSGGDTYYADSVKGRFTISRDNAKNTVYLQMNSLKPEDTAVYYCAALGGRYRASTYGYWGQGTQVTVSS,high polyreactivity
18,QVQLVESGGGLVQAGGSLRLSCAASGRIFLYYAMGWYRQAPGKERELVAAITSSGGGTYYADSVKGRFTISRDNAKNTVYLQMNSLKPEDTAVYYCNKAGPYYGYPHYLFYYWGQGTQVTVSS,high polyreactivity
19,QVQLVESGGGLVQAGGSLRLSCAASGRIFLYYAMGWYRQAPGKERELVAAITSSGGGTYYADSVKGRFTISRDNAKNTVYLQMNSLKPLDTAVYYCAARRRSQWRYYYWGQGTQVTVSS,high polyreactivity
20,QVQLVESGGGLVQAGGSLRLSCAASGRIFLYYTMGWYRQAPGKERELVAAITRSGGSTYYADSVKGRFTISRDNAKNTVYLQMNSLKPEDTAVYYCNRAYVRYVPMNYWGQGTQVTVSS,high polyreactivity
21,QVQLVESGGGLVQAGGSLRLSCAASGRIFNAYAMGGYRQAPGKERELVAAISGGGRTYYADSVKGRFTISRDNAKNTVYLQMNSLKPEDTAVYYCAADSPTQSTLGKYDYWGQGTQVTVSS,high polyreactivity
22,QVQLVESGGGLVQAGGSLRLSCAASGRIFNAYAMGWYRPAPGKERELVAAISSIGGRTYYADSVKGRFTISRDNAKNTVYLQMNSLKPVDTAVYYCAADWSYVRYYYWGQGTQVTVSS,high polyreactivity

row,Sequence,polyreactivity (PSR sort gate)
1,QVQLVESGGGLVQAGGSLRLSCAASGRIFNFNGMGWYRQAPGKERELVAAITSGGSTYYADSVKGRFTISRDNAKNTVYLQMNSLKPEDTAVYYCAAQNAWWSNGRSYDYWGQGTQVTVSS,low polyreactivity
2,QVQLVESGGGLVQAGGSLRLSCAASGRIFNGYTMGWYRQAPGKETEFVATISRSGGSTYYADSVKGRFTISRDHAKNTVYLQMNSLKPEDSAVYYCAKTYPAKWEYDYWGQGTQVTVSS,low polyreactivity
3,QVQLVESGGGLVQAGGSLRLSCAASGRIFNHYAMGWYRQAPGKERELVATISATGGSTYYADSVKGRFTISRDNAKNTVYLQMNSLNPEDTAVYYCNAGHLWYWRTRSARRVGMVYWGQGTQVTVSS,low polyreactivity
4,QVQLVESGGGLVQAGGSLRLSCAASGRIFNLYAMGWYRQAPGKERDLVAAINWSGDRTYYADSVKGRFTISRDNAKNTVYLQMNSLKPDDTAVYYCNADGLEIERYAYWYVFLGYDYWGQGTQVTVSS,low polyreactivity
5,QVQLVESGGGLVQAGGSLRLSCAASGRIFNLYAMGWYRQAPGKERELVAAINWSGDRTYYADSVKGRFTISRDNAKNTVYLQMYSLKPEDTAVYYCNADGLEIERYAYWYVFLGYDYWGQGTQVTVSS,low polyreactivity
6,QVQLVESGGGLVQAGGSLRLSCAASGRIFNLYAMGWYRQAPGKERELVAGISWSGGDTTYADSVKGRFTISRDNAKNTVYLQMNSLKPEDTAVYYCNKRAYLDYGGRGYNYWGQGTRVTVSS,low polyreactivity
7,QVQLVESGGGLVQAGGSLRLSCAASGRIFNNNAMGWYRPAPGKERELVASITRRGGRTYYADSVKGRFTISRDNAKNTVYLQMNSLKPEDTAVYYCNALAGPPEFVRNYYWGQGTQVTVSS,high polyreactivity
8,QVQLVESGGGLVQAGGSLRLSCAASGRIFNRYAMGWSRQAPGKERELVAAITTSADSTYADSVKGRFTISRDNAKNTVYLQRNSLKPEDTAVYYCNVASRQGSTYDYWGQGTQVTVSS,high polyreactivity
9,QVQLVESGGGLVQAGGSLRLSCAASGRIFNRYARGWYRQAPGKERELVAAITYNGGSTYYADSVKGRFTISRDNAKNTVYLQMNSLKPEDTAVYYCNAVEVLDEGCGFWYYYWGQGTQVTVSS,high polyreactivity
10,QVQLVESGGGLVQAGGSLRLSCAASGRIFNSNTMGWYRQAPGKERELVAAITYSGGSTYYADSVKGRFTISRDNAKNTVYLQMNSLNPEDTAVYYCAADFWEYDGPWYANDYDSWGQGTQVTVSS,low polyreactivity
11,QVQLVESGGGLVQAGGSLRLSCAASGRIFNVNAMGWYRQAPGKERDLVARIDTGVGTKYADSVKGRFTISRDNAKNTVYLQMNSLKPEDTAVYYCAARSFSGYGYLVRPKWYYYWGQGTQVTVSS,high polyreactivity
12,QVQLVESGGGLVQAGGSLRLSCAASGRIFNVYAMGWYRQAPGKERELVASINSAGSTYYADSVKGRFTISRDNAKNTVYLQMNSLKPEDTAVYYCAADSYSVYYYTYDSWGQGTQVTVSS,low polyreactivity
13,QVQLVESGGGLVQAGGSLRLSCAASGRIFNYAMGWYRQAPGKERELVAAISRGGGRTYYADSVKGRFTISRDNAKNTVYLQMNSLKPEDTAVYYCAADLSPEYDYWGQGTQVTVSS,high polyreactivity
14,QVQLVESGGGLVQAGGSLRLSCAASGRIFNYNAMGWYRQAPGKERELVAAISSGGDTYYADSVKGRFTISRDNAKNTVYLQINSLKPEDTAVYYCGSTFVVKGTRFGYWGQGTQVTVSS,high polyreactivity
15,QVQLVESGGGLVQAGGSLRLSCAASGRIFNYYAMRWYRQAPGKETELVAAITSSGGSTYYADSVKGRFTISRDNAKNTVYLQMNSLKPEDTAVYYCAAVSTATIRGGYWGQGTQVTVSS,high polyreactivity
16,QVQLVESGGGLVQAGGSLRLSCAASGRIFNYYDMGWYRQAPGKEREFVAAISWRGTSTRYADSVKGRFTISRDNAKNTVYLQMNSLKPEDTAVYYCAADDYARRFSFKYDYWGQGTQVTVSS,high polyreactivity
17,QVQLVESGGGLVQAGGSLRLSCAASGRIFPAYAMGWYRQAPGKERELVASIRRGGITYADSVKGRFTISRDNAKNTVYLQMNSLKPEDTAVYYCARPQWRDWYGYWGQGTQVTVSS,low polyreactivity
18,QVQLVESGGGLVQAGGSLRLSCAASGRIFPAYVMGWYRQAPGKERELVATIDNGGCTYYADSVKGRFTISRDNAKNTVYLQMNSLKPEDTAVYYCARDRHVRWGLKMDYWGQGTQVTVSS,low polyreactivity
19,QVQLVESGGGLVQAGGSLRLSCAASGRIFPAYVMGWYRQPPGKERELVATIDNGGGTYYADSVKGRFTISRDNAKNTVYLQMNSLKPEDTAVYYCARDPHVRWGLKMDYWGQGTQVTVSS,low polyreactivity
20,QVQLVESGGGLVQAGGSLRLSCAASGRIFPEYAMGWYRQAPGKERELVAAITSGGNYADSVKGRFTISRDNAKNTVYLQMNSLKPEDTAVYYCAAVYLWYGSWPLHFAAYDYWGQGTQVTVSS,low polyreactivity
21,QVQLVESGGGLVQAGGSLRLSCAASGRIFPFNAMGWYRQAPGKERELVAAISSSGGSTYYADSVKGRFTISRDNAKNTVYLQMNSLKPEDTAVYSCAATRNSDGMGYWGQGTEVTVSS,low polyreactivity
